Experiments:
[1] = target: dansylated C3G_(277–296) peptide; assay: stopped-flow kinetics (FRET, Trp to dansyl); variants, ionic strength series: 0.5 µM dansyl peptide mixed with 2.0-4.5 µM N-SH3 variant; KD = koff/kon; 50 mM Hepes pH 7.5, 0 M NaCl, 10 °C
[2] = target: dansylated C3G_(277–296) peptide; assay: stopped-flow kinetics (FRET, Trp to dansyl); variants, ionic strength series: 0.5 µM dansyl peptide mixed with N-SH3 variant (D138A 2.5-6.0 µM, E140A 3.0-5.5 µM); KD = koff/kon; 50 mM Hepes pH 7.5, 0.05 M NaCl, 10 °C
[3] = target: dansylated C3G_(277–296) peptide; assay: stopped-flow kinetics (FRET, Trp to dansyl); variants, ionic strength series: 0.5 µM dansyl peptide mixed with N-SH3 variant (D138A 2.5-6.0 µM, E140A 3.0-5.0 µM); KD = koff/kon; 50 mM Hepes pH 7.5, 0.1 M NaCl, 10 °C
[4] = target: dansylated C3G_(277–296) peptide; assay: stopped-flow kinetics (FRET, Trp to dansyl); variants, ionic strength series: 0.5 µM dansyl peptide mixed with N-SH3 variant (D138A 2.5-6.0 µM, E140A 3.0-5.5 µM); KD = koff/kon; 50 mM Hepes pH 7.5, 0.15 M NaCl, 10 °C
[5] = target: dansylated C3G_(277–296) peptide; assay: stopped-flow kinetics (FRET, Trp to dansyl); ionic strength series: 0.5 µM dansyl peptide mixed with 0.5-5 µM N-SH3; koff from displacement; KD = koff/kon; Hepes 50 mM pH 7.0, 1 M NaCl, 10 °C
[6] = target: dansylated C3G_(277–296) peptide; assay: stopped-flow kinetics (FRET, Trp to dansyl); pH series: 0.5 µM dansyl peptide mixed with 4.0-8.0 µM N-SH3; koff from displacement; 50 mM sodium acetate pH 5.0, 0.5 M NaCl, 10 °C
[7] = target: dansylated C3G_(277–296) peptide; assay: stopped-flow kinetics (FRET, Trp to dansyl); pH series: 0.5 µM dansyl peptide mixed with 2.0-7.0 µM N-SH3; koff from displacement; 50 mM sodium acetate pH 5.5, 0.5 M NaCl, 10 °C
[8] = target: dansylated C3G_(277–296) peptide; assay: stopped-flow kinetics (FRET, Trp to dansyl); pH series: 0.5 µM dansyl peptide mixed with 0.5-5.0 µM N-SH3; koff from displacement; Hepes 50 mM pH 7.5, 0.5 M NaCl, 10 °C
[9] = target: dansylated C3G_(277–296) peptide; assay: stopped-flow kinetics (FRET, Trp to dansyl); pH series: 0.5 µM dansyl peptide mixed with 1.0-5.0 µM N-SH3; koff from displacement; Bis-Tris 50 mM pH 6.0, 0.5 M NaCl, 10 °C
[10] = target: dansylated C3G_(277–296) peptide; assay: stopped-flow kinetics (FRET, Trp to dansyl); ionic strength series: 0.5 µM dansyl peptide mixed with 0.5-5 µM N-SH3; koff from displacement; KD = koff/kon; Hepes 50 mM pH 7.0, 0.5 M NaCl, 10 °C
[11] = target: dansylated C3G_(277–296) peptide; assay: stopped-flow kinetics (FRET, Trp to dansyl); ionic strength series: 0.5 µM dansyl peptide mixed with 0.5-5 µM N-SH3; koff from displacement; KD = koff/kon; Hepes 50 mM pH 7.0, 0.15 M NaCl, 10 °C
[12] = target: dansylated C3G_(277–296) peptide; assay: stopped-flow kinetics (FRET, Trp to dansyl); ionic strength series: 0.5 µM dansyl peptide mixed with 0.5-5 µM N-SH3; koff from displacement; KD = koff/kon; Hepes 50 mM pH 7.0, 0.3 M NaCl, 10 °C
[13] = target: dansylated C3G_(277–296) peptide; assay: stopped-flow kinetics (FRET, Trp to dansyl); pH series: 0.5 µM dansyl peptide mixed with 1.5-6.0 µM N-SH3; koff from displacement; Tris-HCl 50 mM pH 8.5, 0.5 M NaCl, 10 °C
[14] = target: dansylated C3G_(277–296) peptide; assay: stopped-flow kinetics (FRET, Trp to dansyl); pH series: 0.5 µM dansyl peptide mixed with 1.5-6.0 µM N-SH3; koff from displacement; Tris-HCl 50 mM pH 8.0, 0.5 M NaCl, 10 °C
[15] = target: dansylated C3G_(277–296) peptide; assay: stopped-flow kinetics (FRET, Trp to dansyl); pH series: 0.5 µM dansyl peptide mixed with 1.5-6.0 µM N-SH3; koff from displacement; Hepes 50 mM pH 7.0, 0.5 M NaCl, 10 °C
[16] = target: dansylated C3G_(277–296) peptide; assay: stopped-flow kinetics (FRET, Trp to dansyl); pH series: 0.5 µM dansyl peptide mixed with 1.5-6.0 µM N-SH3; koff from displacement; Tris-HCl 50 mM pH 9.0, 0.5 M NaCl, 10 °C
[17] = target: dansylated C3G_(277–296) peptide; assay: stopped-flow kinetics (FRET, Trp to dansyl); ionic strength series: 0.5 µM dansyl peptide mixed with 1-5 µM N-SH3; koff from displacement with excess nondansylated peptide; KD = koff/kon; Hepes 50 mM pH 7.0, 0 M NaCl, 10 °C
[18] = target: dansylated C3G_(277–296) peptide; assay: stopped-flow kinetics (FRET, Trp to dansyl); pH series: 0.5 µM dansyl peptide mixed with 0.5-5.0 µM N-SH3; koff from displacement; Bis-Tris 50 mM pH 6.5, 0.5 M NaCl, 10 °C

## N-SH3 domain of Crkl, D138A variant (domain or fragment)
[1]
  Kd: 900 nM
  koff: 139 s⁻¹
  kon: 1.58e+08 M⁻¹ s⁻¹
[2]
  Kd: 2600 nM
  koff: 212 s⁻¹
  kon: 8.1e+07 M⁻¹ s⁻¹
[3]
  Kd: 3800 nM
  koff: 183 s⁻¹
  kon: 4.8e+07 M⁻¹ s⁻¹
[4]
  Kd: 22000 nM
  koff: 254 s⁻¹
  kon: 1.2e+07 M⁻¹ s⁻¹

## N-SH3 domain of Crkl, E140A variant (domain or fragment)
[1]
  Kd: 3300 nM
  koff: 254 s⁻¹
  kon: 7.8e+07 M⁻¹ s⁻¹
[2]
  Kd: 3700 nM
  koff: 330 s⁻¹
  kon: 8.9e+07 M⁻¹ s⁻¹
[3]
  Kd: 3900 nM
  koff: 302 s⁻¹
  kon: 7.7e+07 M⁻¹ s⁻¹
[4]
  Kd: 4200 nM
  koff: 339 s⁻¹
  kon: 8.1e+07 M⁻¹ s⁻¹

## N-terminal SH3 domain of Crkl, wild type (domain or fragment)
[5]
  Kd: 750 nM
  koff: 51 s⁻¹
  kon: 6.8e+07 M⁻¹ s⁻¹
[6]
  Kd: 5900 nM
  koff: 257 s⁻¹
  kon: 4.4e+07 M⁻¹ s⁻¹
[7]
  Kd: 2200 nM
  koff: 81 s⁻¹
  kon: 3.7e+07 M⁻¹ s⁻¹
[8]
  Kd: 700 nM
  koff: 34 s⁻¹
  kon: 5.1e+07 M⁻¹ s⁻¹
[9]
  Kd: 5400 nM
  koff: 78 s⁻¹
  kon: 1.5e+07 M⁻¹ s⁻¹
[10]
  Kd: 660 nM
  koff: 34 s⁻¹
  kon: 5.1e+07 M⁻¹ s⁻¹
[11]
  Kd: 240 nM
  koff: 23 s⁻¹
  kon: 9.6e+07 M⁻¹ s⁻¹
[12]
  Kd: 390 nM
  koff: 32 s⁻¹
  kon: 8.3e+07 M⁻¹ s⁻¹
[13]
  Kd: 600 nM
  koff: 40 s⁻¹
  kon: 6.8e+07 M⁻¹ s⁻¹
[14]
  Kd: 800 nM
  koff: 46 s⁻¹
  kon: 5.6e+07 M⁻¹ s⁻¹
[15]
  Kd: 800 nM
  koff: 42 s⁻¹
  kon: 5.2e+07 M⁻¹ s⁻¹
[16]
  Kd: 1000 nM
  koff: 39 s⁻¹
  kon: 3.9e+07 M⁻¹ s⁻¹
[17]
  Kd: 90 nM
  koff: 12 s⁻¹
  kon: 1.3e+08 M⁻¹ s⁻¹
[18]
  Kd: 1000 nM
  koff: 65 s⁻¹
  kon: 6.5e+07 M⁻¹ s⁻¹

Reference: PMC8705818, “Experimental Characterization of the Interaction between the N-Terminal SH3 Domain of Crkl and C3G” (International Journal of Molecular Sciences, 2021)
